MC1R cAMP EC50, MC4R cAMP EC50 and Ki data for 26 molecules are collected here from patent publication US20200223889A1, “Bicyclic Compounds Capable of Binding to Melanocortin 4 Receptor” (Novo Nordisk A/S, priority 2017, published 2020).

Experiment [1] addresses human melanocortin 1 receptor (human), Q01726. The experiment is described as follows: cell-based or functional assay.
For experiment [2], the target named is human melanocortin 4 receptor (human), P32245. Nature of the experiment: cell-based or functional assay.
For experiment [3] the target is unchanged. The experiment is described as follows: competition with 125-NDP-α-MSH, BHK human MC4R membranes.
The target of experiment [4] is human melanocortin 4 receptor (human) (UniProt P32245). The experiment is described as follows: cell-based or functional assay.
Experiment [5] has the same target. Nature of the experiment: competition with 125-NDP-α-MSH, BHK human MC4R membranes.

Positions of bridges follow the written chain, without caps; N, C: chain ends. Non-standard residues stand in square brackets, D forms with d. Hyp = O=C(O)[C@@H]1C[C@@H](O)CN1; Dab = NCC[C@H](N)C(=O)O; Aib = CC(C)(N)C(=O)O

Chain of human melanocortin 4 receptor (human), P32245 (P32245 whole entry): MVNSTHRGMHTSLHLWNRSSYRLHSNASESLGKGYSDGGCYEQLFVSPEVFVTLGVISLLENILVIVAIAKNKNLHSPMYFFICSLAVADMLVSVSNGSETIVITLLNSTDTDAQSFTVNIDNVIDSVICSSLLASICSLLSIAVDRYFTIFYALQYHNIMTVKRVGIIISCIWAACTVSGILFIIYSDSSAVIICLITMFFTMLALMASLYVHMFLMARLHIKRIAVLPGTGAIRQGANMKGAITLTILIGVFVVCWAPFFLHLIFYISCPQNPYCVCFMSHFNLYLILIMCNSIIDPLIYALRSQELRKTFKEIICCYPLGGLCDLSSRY
Chain of human melanocortin 4 receptor (human) (P32245 whole entry): as above
Chain of human melanocortin 1 receptor (human), Q01726 (Q01726 whole entry): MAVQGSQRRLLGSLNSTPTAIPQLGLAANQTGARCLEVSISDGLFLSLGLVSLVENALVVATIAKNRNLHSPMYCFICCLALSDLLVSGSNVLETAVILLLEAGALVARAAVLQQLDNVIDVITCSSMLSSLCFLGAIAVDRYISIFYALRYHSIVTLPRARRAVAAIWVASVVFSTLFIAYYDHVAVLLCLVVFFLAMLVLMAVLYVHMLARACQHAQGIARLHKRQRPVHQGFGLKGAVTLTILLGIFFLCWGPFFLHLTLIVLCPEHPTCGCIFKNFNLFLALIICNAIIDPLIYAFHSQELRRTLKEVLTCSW

In experiment [1], CAHFRWCAHFRW (modifications not checked) [Chem. 10] yielded an MC1R cAMP EC50 of 4.88 nM.
CAHFRWCKKKR (modifications not checked) [Chem. 101] displayed an MC1R cAMP EC50 in experiment [1] of 0.19 nM. In experiment [2], this molecule had an MC4R cAMP EC50 of 0.04 nM. Besides, the Ki in experiment [3] worked out at 0.05 nM.
Taken in the same sequence, the figures for CAHFRWCAHFRW (modifications not checked) [Chem. 56] were 35.3 nM, 0.44 nM and 1.82 nM.
Regarding CAHFRWCAKKKR (modifications not checked) [Chem. 85], the MC1R cAMP EC50 in experiment [1] came out at 0.22 nM. The molecule further gave an MC4R cAMP EC50 in experiment [2] of 0.01 nM. The molecule also gave a Ki in experiment [3] of 0.02 nM.

B1: Chem. 6 (peptide)
peptide: cyclo(CH[dF]RW[dA]CH[dF]RW[dA])
modifications: disulfide 1-7
SMILES: C[C@H]1NC(=O)[C@H](Cc2c[nH]c3ccccc23)NC(=O)[C@H](CCCNC(=N)N)NC(=O)[C@@H](Cc2ccccc2)NC(=O)[C@H](Cc2c[nH]cn2)NC(=O)[C@@H]2CSSC[C@H](NC1=O)C(=O)N[C@@H](Cc1c[nH]cn1)C(=O)N[C@H](Cc1ccccc1)C(=O)N[C@@H](CCCNC(=N)N)C(=O)N[C@@H](Cc1c[nH]c3ccccc13)C(=O)N[C@H](C)C(=O)N2
B1 showed an MC4R cAMP EC50 in experiment [4] of 0.06 nM. Further, in experiment [5], the Ki worked out at 0.19 nM.
In experiment [1], CAHFRWCAEEEW (modifications not checked) [Chem. 44] showed an MC1R cAMP EC50 of 31.9 nM. In experiment [2], this molecule returned an MC4R cAMP EC50 of 1.53 nM. In addition, in experiment [3], the Ki came out at 50.9 nM.

B2: Chem. 38 (peptide)
peptide: cyclo(C[Aib][Hyp][dF]RWC[Aib][Hyp][dF]RW)
modifications: disulfide 1-7
SMILES: CC1(C)NC(=O)[C@@H]2CSSC[C@H](NC(=O)[C@H](Cc3c[nH]c4ccccc34)NC(=O)[C@H](CCCNC(=N)N)NC(=O)[C@@H](Cc3ccccc3)NC(=O)[C@@H]3C[C@@H](O)CN3C1=O)C(=O)NC(C)(C)C(=O)N1C[C@H](O)C[C@H]1C(=O)N[C@H](Cc1ccccc1)C(=O)N[C@@H](CCCNC(=N)N)C(=O)N[C@@H](Cc1c[nH]c3ccccc13)C(=O)N2
Consider B2, for which the MC4R cAMP EC50 in experiment [4] amounted to 4.22 nM. Moreover, in experiment [5], the Ki is 5.64 nM.
As to CAHFRWCPPERW (modifications not checked) [Chem. 112], the MC1R cAMP EC50 in experiment [1] is 30.2 nM. Moreover, the MC4R cAMP EC50 in experiment [2] amounted to 0.19 nM. Further, the Ki in experiment [3] turned out to be 1.21 nM.
On to CAHFRWCAAAAR (modifications not checked) [Chem. 90], for which the MC1R cAMP EC50 in experiment [1] is 0.65 nM. The molecule also returned an MC4R cAMP EC50 in experiment [2] of 0.01 nM. Further, in experiment [3], the Ki was 0.11 nM.
In the same order, the values of CAHFRWCRFFNAF (modifications not checked) [Chem. 13] are 6.36 nM, 0.1 nM and 0.26 nM.
As for CAHFRWCAAAAW (modifications not checked) [Chem. 88], the MC1R cAMP EC50 in experiment [1] worked out at 1.31 nM. In addition, the MC4R cAMP EC50 in experiment [2] stood at 0.02 nM. The molecule also had a Ki in experiment [3] of 0.2 nM.

B3: Chem. 33 (peptide)
peptide: cyclo(C[dP]H[dF]RWC[dP]H[dF]RW)
modifications: disulfide 1-7
SMILES: N=C(N)NCCC[C@@H]1NC(=O)[C@@H](Cc2ccccc2)NC(=O)[C@H](Cc2c[nH]cn2)NC(=O)[C@H]2CCCN2C(=O)[C@@H]2CSSC[C@H](NC(=O)[C@H](Cc3c[nH]c4ccccc34)NC1=O)C(=O)N1CCC[C@@H]1C(=O)N[C@@H](Cc1c[nH]cn1)C(=O)N[C@H](Cc1ccccc1)C(=O)N[C@@H](CCCNC(=N)N)C(=O)N[C@@H](Cc1c[nH]c3ccccc13)C(=O)N2
B3 gave an MC4R cAMP EC50 in experiment [4] of 19.8 nM. Besides, the Ki in experiment [5] is 27.8 nM.
As to CAHFRWCAAAAW (modifications not checked) [Chem. 87], the MC1R cAMP EC50 in experiment [1] was found to be 1.39 nM. Also, the MC4R cAMP EC50 in experiment [2] was 0.04 nM. The molecule further yielded a Ki in experiment [3] of 0.17 nM.

B4: Chem. 46 (peptide)
peptide: cyclo(C[Aib]H[dF][Dab]WC[Aib]H[dF][Dab]W)
modifications: disulfide 1-7
SMILES: CC1(C)NC(=O)[C@@H]2CSSC[C@H](NC(=O)[C@H](Cc3c[nH]c4ccccc34)NC(=O)[C@H](CCN)NC(=O)[C@@H](Cc3ccccc3)NC(=O)[C@H](Cc3c[nH]cn3)NC1=O)C(=O)NC(C)(C)C(=O)N[C@@H](Cc1c[nH]cn1)C(=O)N[C@H](Cc1ccccc1)C(=O)N[C@@H](CCN)C(=O)N[C@@H](Cc1c[nH]c3ccccc13)C(=O)N2
The molecule B4 came in with an MC4R cAMP EC50 in experiment [4] of 5.65 nM. For the same molecule, in experiment [5], the Ki was 7.86 nM.

B5: Chem. 34 (peptide)
peptide: cyclo(C[dV]H[dF]RWC[dV]H[dF]RW)
modifications: disulfide 1-7
SMILES: CC(C)[C@H]1NC(=O)[C@@H]2CSSC[C@H](NC(=O)[C@H](Cc3c[nH]c4ccccc34)NC(=O)[C@H](CCCNC(=N)N)NC(=O)[C@@H](Cc3ccccc3)NC(=O)[C@H](Cc3c[nH]cn3)NC1=O)C(=O)N[C@H](C(C)C)C(=O)N[C@@H](Cc1c[nH]cn1)C(=O)N[C@H](Cc1ccccc1)C(=O)N[C@@H](CCCNC(=N)N)C(=O)N[C@@H](Cc1c[nH]c3ccccc13)C(=O)N2
For the molecule B5, the MC4R cAMP EC50 in experiment [4] amounted to 0.12 nM. The molecule further gave a Ki in experiment [5] of 0.88 nM.

B6: Chem. 41 (peptide)
peptide: CXHFXWCXHFXW
modifications: Aib 2, 8; D-Phe 4, 10; Cit 5, 11; disulphide Cys1-Cys7; head-to-tail amide Cys1-Trp12
For the molecule B6, the MC4R cAMP EC50 in experiment [4] was 1.34 nM. This molecule displayed a Ki in experiment [5] of 5.39 nM.
Consider CAHFRWCAHFRW (modifications not checked) [Chem. 8], for which, in experiment [1], the MC1R cAMP EC50 was found to be 1.76 nM. The molecule also returned an MC4R cAMP EC50 in experiment [2] of 0.02 nM. In experiment [3], this molecule displayed a Ki of 0.08 nM.
Taken in the same sequence, the figures for CAHFRWCAHFRW (modifications not checked) [Chem. 111] were 0.31 nM, 0.01 nM and 0.04 nM.
The molecule CAHFRWCAYFKW (modifications not checked) [Chem. 80] returned an MC1R cAMP EC50 in experiment [1] of 8.65 nM. In experiment [2], this molecule returned an MC4R cAMP EC50 of 0.15 nM. The molecule also returned a Ki in experiment [3] of 0.16 nM.
In experiment [1], CAHFRWCAAAAR (modifications not checked) [Chem. 89] showed an MC1R cAMP EC50 of 0.59 nM. For the same molecule, the MC4R cAMP EC50 in experiment [2] came out at 0.02 nM. In experiment [3], this molecule displayed a Ki of 0.07 nM.

B7: Chem. 86 (peptide)
peptide: cyclo(C[dK]H[dF]HWC[dK]H[dF]HW)
modifications: disulfide 1-7
SMILES: NCCCC[C@H]1NC(=O)[C@@H]2CSSC[C@H](NC(=O)[C@H](Cc3c[nH]c4ccccc34)NC(=O)[C@H](Cc3c[nH]cn3)NC(=O)[C@@H](Cc3ccccc3)NC(=O)[C@H](Cc3c[nH]cn3)NC1=O)C(=O)N[C@H](CCCCN)C(=O)N[C@@H](Cc1c[nH]cn1)C(=O)N[C@H](Cc1ccccc1)C(=O)N[C@@H](Cc1c[nH]cn1)C(=O)N[C@@H](Cc1c[nH]c3ccccc13)C(=O)N2
B7 came in with an MC4R cAMP EC50 in experiment [4] of 14.5 nM. In experiment [5], this molecule showed a Ki of 9.6 nM.
For CAHFRWCAEEAW (modifications not checked) [Chem. 102], the MC1R cAMP EC50 in experiment [1] came to 14.3 nM. This molecule also had an MC4R cAMP EC50 in experiment [2] of 0.49 nM. Moreover, in experiment [3], the Ki was determined as 10.1 nM.
As to CAHFRWCRFFNA (modifications not checked) [Chem. 12], the MC1R cAMP EC50 in experiment [1] is 3.97 nM. The MC4R cAMP EC50 in experiment [2] was determined as 0.07 nM. This molecule showed a Ki in experiment [3] of 0.28 nM.
Take CAHFRWCAAFAW (modifications not checked) [Chem. 11]: in experiment [1], the MC1R cAMP EC50 came out at 2.17 nM. Further, in experiment [2], the MC4R cAMP EC50 came out at 0.03 nM. The Ki in experiment [3] was 0.25 nM.
In the same order, the values of CAHFRWCAKKKR (modifications not checked) [Chem. 59] are 0.16 nM, 0.004 nM and 0.01 nM.

B8: Chem. 43 (peptide)
peptide: CXHFXWCXHFXW
modifications: Aib 2, 8; D-Phe 4, 10; AGP 5, 11; disulphide Cys1-Cys7; head-to-tail amide Cys1-Trp12
In experiment [4], B8 yielded an MC4R cAMP EC50 of 0.44 nM. In experiment [5], this molecule showed a Ki of 2.61 nM.
